Experiments:
HeLa Kyoto [1] = experiment: solubility in G1/S (NP-40 vs SDS abundance) (log2 ratio); higher = more soluble; settings: cell cycle stage: G1/S
HeLa Kyoto [2] = experiment: melting temperature (median over replicates), in situ; higher = more thermally stable
HeLa Kyoto [3] = experiment: solubility change mitosis vs G1/S (difference of NP-40 vs SDS log2 ratios) (log2 ratio difference); higher = more soluble in mitosis
HeLa Kyoto [4] = experiment: thermal stability score vs G1/S (z-score of summed log2 fold changes over temperatures); higher = more thermally stable than in G1/S
[5] = cell cycle stage: early G1 (4.5 h after nocodazole release)
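Wherever melting temperature (median over replicates), in situ is given: HeLa Kyoto cells synchronized by double thymidine or nocodazole block, proteins quantified by TMT10plex mass spectrometry, three independent biological replicates.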
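Wherever solubility change mitosis vs G1/S (difference of NP-40 vs SDS log2 ratios) is given: synchronized HeLa Kyoto cells (double thymidine block for G1/S, nocodazole release for mitosis), protein amounts in NP-40 versus SDS lysates quantified by mass spectrometry, three biological replicates.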
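Wherever solubility in G1/S (NP-40 vs SDS abundance) is given: HeLa Kyoto cells arrested at G1/S by double thymidine block, proteins quantified by TMT10plex mass spectrometry in mild NP-40 versus SDS extracts, three biological replicates.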
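Wherever thermal stability score vs G1/S (z-score of summed log2 fold changes over temperatures) is given: synchronized HeLa Kyoto cells, proteins quantified by TMT10plex mass spectrometry, three biological replicates, mitosis taken 0.5 h after nocodazole release, G1/S directly after double thymidine block.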

Substance | solubility in G1/S (log2) (HeLa Kyoto [1]) | melting temperature (HeLa Kyoto [2]; cell cycle stage: G1/S) | melting temperature (HeLa Kyoto [2]; cell cycle stage: mitosis) | solubility change mitosis (log2) (HeLa Kyoto [3]) | thermal stability score (HeLa Kyoto [4]; [5]) | thermal stability score (HeLa Kyoto [4]; cell cycle stage: mitosis)
MAAAGGARLLRAASAVLGGPAGRWLHHAGSRAGSSGLLRNRGPGGSAEASRSLSVSARARSSSEDKITVHFINRDGETLTTKGKVGDSLLDVVVENNLDIDGFGACEGTLACSTCHLIFEDHIYEKLDAITDEENDMLDLAYGLTDRSRLGCQICLTKSMDNMTVRVPETVADARQSIDVGKTS [FDX1] | 0.338 | 53 °C | 53.9 °C | -0.0683 | -0.691 | -1.73
MPALPLDQLQITHKDPKTGKLRTSPALHPEQKADRYFVLYKPPPKDNIPALVEEYLERATFVANDLDWLLALPHDKFWCQVIFDETLQKCLDSYLRYVPRKFDEGVASAPEVVDMQKRLHRSVFLTFLRMSTHKESKDHFISPSAFGEILYNNFLFDIPKILDLCVLFGKGNSPLLQKMIGNIFTQQPSYYSDLDETLPTILQVFSNILQHCGLQGDGANTTPQKLEERGRLTPSDMPLLELKDIVLYLCDTCTTLWAFLDIFPLACQTFQKHDFCYRLASFYEAAIPEMESAIKKRRLEDSKLLGDLWQRLSHSRKKLMEIFHIILNQICLLPILESSCDNIQGFIEEFLQIFSSLLQEKRFLRDYDALFPVAEDISLLQQASSVLDETRTAYILQAVESAWEGVDRRKATDAKDPSVIEEPNGEPNGVTVTAEAVSQASSHPENSEEEECMGAAAAVGPAMCGVELDSLISQVKDLLPDLGEGFILACLEYYHYDPEQVINNILEERLAPTLSQLDRNLDREMKPDPTPLLTSRHNVFQNDEFDVFSRDSVDLSRVHKGKSTRKEENTRSLLNDKRAVAAQRQRYEQYSVVVEEVPLQPGESLPYHSVYYEDEYDDTYDGNQVGANDADSDDELISRRPFTIPQVLRTKVPREGQEEDDDDEEDDADEEAPKPDHFVQDPAVLREKAEARRMAFLAKKGYRHDSSTAVAGSPRGHGQSRETTQERRKKEANKATRANHNRRTMADRKRSKGMIPS [ASCC2] | -0.248 | 52.1 °C | 49.5 °C | 0.0692 | 0.236 | 1.02
MRRLPRALLLQLRLALLVAAGAPEVLVSAPRSLVWGPGLQAAVVLPVRYFYLQAVNSEGQNLTRSPAGETPFKVVVKSLSPKELVRIHVPKPLDRNDGTFLMRYRMYETVDEGLKIEVLYGDEHVAQSPYILKGPVYHEYCECPEDPQAWQKTLSCPTKEPQIAKDFASFPSINLQQMLKEVPKRFGDERGAIVHYTILNNHVYRRSLGKYTDFKMFSDEILLSLTRKVLLPDLEFYVNLGDWPLEHRKVNGTPSPIPIISWCGSLDSRDVVLPTYDITHSMLEAMRGVTNDLLSIQGNTGPSWINKTERAFFRGRDSREERLQLVQLSKENPQLLDAGITGYFFFQEKEKELGKAKLMGFFDFFKYKYQVNVDGTVAAYRYPYLMLGDSLVLKQDSPYYEHFYMALEPWKHYVPIKRNLSDLLEKVKWAKENDEEAKKIAKEGQLMARDLLQPHRLYCYYYQVLQKYAERQSSKPEVRDGMELVPQPEDSTAICQCHRKKPSREEL [KDELC2] | 0.282 | 53.8 °C | 54.9 °C | -0.048 | 4.98 | 4.71
MLPLSIKDDEYKPPKFNLFGKISGWFRSILSDKTSRNLFFFLCLNLSFAFVELLYGIWSNCLGLISDSFHMFFDSTAILAGLAASVISKWRDNDAFSYGYVRAEVLAGFVNGLFLIFTAFFIFSEGVERALAPPDVHHERLLLVSILGFVVNLIGIFVFKHGGHGHSHGSGHGHSHSLFNGALDQAHGHVDHCHSHEVKHGAAHSHDHAHGHGHFHSHDGPSLKETTGPSRQILQGVFLHILADTLGSIGVIASAIMMQNFGLMIADPICSILIAILIVVSVIPLLRESVGILMQRTPPLLENSLPQCYQRVQQLQGVYSLQEQHFWTLCSDVYVGTLKLIVAPDADARWILSQTHNIFTQAGVRQLYVQIDFAAM [SLC30A7] | 0.101 | 57.8 °C | 55.4 °C | -0.278 | 0.255 | -1.45
MKPRPAGFVDNKLKQRVIQYLTSNKCGKYVDIGVLASDLQRVYSIDYGRRKRNAFRIQVEKVFSIISSEKELKNLTELEDEHLAKRARQGEEDNEYTESYSDDDSSMEDYPDPQSANHMNSSLLSLYRKGNPDSVSNTPEMEQRETTSSTPRISSKTGSIPLKTPAKDSEGGWFIDKTPSVKKDSFFLDLSCEKSNPKKPITEIQDSKDSSLLESDMKRKGKLKNKGSKRKKEDLQEVDGEIEAVLQKKAKARGLEFQISNVKFEDVGGNDMTLKEVCKMLIHMRHPEVYHHLGVVPPRGVLLHGPPGCGKTLLAHAIAGELDLPILKVAAPEIVSGVSGESEQKLRELFEQAVSNAPCIIFIDEIDAITPKREVASKDMERRIVAQLLTCMDDLNNVAATARVLVIGATNRPDSLDPALRRAGRFDREICLGIPDEASRERILQTLCRKLRLPQAFDFCHLAHLTPGFVGADLMALCREAAMCAVNRVLMKLQEQQKKNPEMEDLPSKGVQEERLGTEPTSETQDELQRLLGLLRDQDPLSEEQMQGLCIELNDFIVALSSVQPSAKREGFVTVPNVTWADIGALEDIREELTMAILAPVRNPDQFKALGLVTPAGVLLAGPPGCGKTLLAKAVANESGLNFISVKGPELLNMYVGESERAVRQVFQRAKNSAPCVIFFDEVDALCPRRSDRETGASVRVVNQLLTEMDGLEARQQVFIMAATNRPDIIDPAILRPGRLDKTLFVGLPPPADRLAILKTITKNGTKPPLDADVNLEAIAGDLRCDCYTGADLSALVREASICALRQEMARQKSGNEKGELKVSHKHFEEAFKKVRSSISKKDQIMYERLQESLSR [NVL] | -1.77 | 53.8 °C | 52.7 °C | 0.882 | 1.41 | 1.19
MSQPGIPASGGAPASLQAQNGAALASGSPYTNGPVQNALLSSQESVSQGYNFQLPGSYPHPIPAKTLNPVSGQSNYGGSQGSGQTLNRPPVASNPVTPSLHSGPAPRMPLPASQNPATTPMPSSSFLPEANLPPPLNWQYNYPSTASQTNHCPRASSQPTVSGNTSLTTNHQYVSSGYPSLQNSFIKSGPSVPPLVNPPLPTTFQPGAPHGPPPAGGPPPVRALTPLTSSYRDVPQPLFNSAVNQEGITSNTNNGSMVVHSSYDEIEGGGLLATPQLTNKNPKMSRSVGYSYPSLPPGYQNTTPPGATGVPPSSLNYPSGPQAFTQTPLGANHLTTSMSGLSLQPEGLRVVNLLQERNMLPSTPLKPPVPNLHEDIQKLNCNPELFRCTLTSIPQTQALLNKAKLPLGLLLHPFKDLVQLPVVTSSTIVRCRSCRTYINPFVSFLDQRRWKCNLCYRVNDVPEEFLYNPLTRVYGEPHRRPEVQNATIEFMAPSEYMLRPPQPPVYLFVFDVSHNAVETGYLNSVCQSLLDNLDLLPGNTRTKIGFITFDSTIHFYGLQESLSQPQMLIVSDIEDVFIPMPENLLVNLNESKELVQDLLKTLPQMFTKTLETQSALGPALQAAFKLMSPTGGRMSVFQTQLPTLGVGALKPREEPNHRSSAKDIHMTPSTDFYKKLALDCSGQQVAVDLFLLSGQYSDLASLGCISRYSAGSVYYYPSYHHQHNPVQVQKLQKELQRYLTRKIGFEAVMRIRCTKGLSIHTFHGNFFVRSTDLLSLPNVNPDAGYAVQMSVEESLTDTQLVSFQSALLYTSSKGERRIRVHTLCLPVVSTLNDVFLGADVQAISGLLANMAVDRSMTASLSDARDALVNAVIDSLSAYRSSVLSNQQPGLMVPFSLRLFPLFVLALLKQKSFQTGTNARLDERIFAMCQVKNQPLVYLMLTTHPSLYRVDNLSDEGALNISDRTIPQPPILQLSVEKLSRDGAFLMDAGSVLMLWVGKNCTQNFLSQVLGVQNYASIPQPMTDLPELDTPESARIIAFISWLREQRPFFPILYVIRDESPMKANFLQNMIEDRTESALSYYEFLLHIQQQVNK [SEC24A] | 0.00033 | 49.5 °C | 49.5 °C | -0.0997 | 0.052 | 0.892
MGCTVSAEDKAAAERSKMIDKNLREDGEKAAREVKLLLLGAGESGKSTIVKQMKIIHEDGYSEEECRQYRAVVYSNTIQSIMAIVKAMGNLQIDFADPSRADDARQLFALSCTAEEQGVLPDDLSGVIRRLWADHGVQACFGRSREYQLNDSAAYYLNDLERIAQSDYIPTQQDVLRTRVKTTGIVETHFTFKDLHFKMFDVGGQRSERKKWIHCFEGVTAIIFCVALSAYDLVLAEDEEMNRMHESMKLFDSICNNKWFTDTSIILFLNKKDLFEEKITHSPLTICFPEYTGANKYDEAASYIQSKFEDLNKRKDTKEIYTHFTCATDTKNVQFVFDAVTDVIIKNNLKDCGLF [GNAI2] | -0.568 | 53.5 °C | 54.2 °C | -0.242 | 0.395 | 0.061
HEATR5B | -0.275 | 50.8 °C | 52.4 °C | -0.00901 | -0.405 | -0.289
MSRRSQRLTRYSQGDDDGSSSSGGSSVAGSQSTLFKDSPLRTLKRKSSNMKRLSPAPQLGPSSDAHTSYYSESLVHESWFPPRSSLEELHGDANWGEDLRVRRRRGTGGSESSRASGLVGRKATEDFLGSSSGYSSEDDYVGYSDVDQQSSSSRLRSAVSRAGSLLWMVATSPGRLFRLLYWWAGTTWYRLTTAASLLDVFVLTRRFSSLKTFLWFLLPLLLLTCLTYGAWYFYPYGLQTFHPALVSWWAAKDSRRPDEGWEARDSSPHFQAEQRVMSRVHSLERRLEALAAEFSSNWQKEAMRLERLELRQGAPGQGGGGGLSHEDTLALLEGLVSRREAALKEDFRRETAARIQEELSALRAEHQQDSEDLFKKIVRASQESEARIQQLKSEWQSMTQESFQESSVKELRRLEDQLAGLQQELAALALKQSSVAEEVGLLPQQIQAVRDDVESQFPAWISQFLARGGGGRVGLLQREEMQAQLRELESKILTHVAEMQGKSAREAAASLSLTLQKEGVIGVTEEQVHHIVKQALQRYSEDRIGLADYALESGGASVISTRCSETYETKTALLSLFGIPLWYHSQSPRVILQPDVHPGNCWAFQGPQGFAVVRLSARIRPTAVTLEHVPKALSPNSTISSAPKDFAIFGFDEDLQQEGTLLGKFTYDQDGEPIQTFHFQAPTMATYQVVELRILTNWGHPEYTCIYRFRVHGEPAH [SUN2] | -0.141 | 52.4 °C | 55.1 °C | 0.229 | -1.84 | -1.17
MMPTPVILLKEGTDSSQGIPQLVSNISACQVIAEAVRTTLGPRGMDKLIVDGRGKATISNDGATILKLLDVVHPAAKTLVDIAKSQDAEVGDGTTSVTLLAAEFLKQVKPYVEEGLHPQIIIRAFRTATQLAVNKIKEIAVTVKKADKVEQRKLLEKCAMTALSSKLISQQKAFFAKMVVDAVMMLDDLLQLKMIGIKKVQGGALEDSQLVAGVAFKKTFSYAGFEMQPKKYHNPKIALLNVELELKAEKDNAEIRVHTVEDYQAIVDAEWNILYDKLEKIHHSGAKVVLSKLPIGDVATQYFADRDMFCAGRVPEEDLKRTMMACGGSIQTSVNALSADVLGRCQVFEETQIGGERYNFFTGCPKAKTCTFILRGGAEQFMEETERSLHDAIMIVRRAIKNDSVVAGGGAIEMELSKYLRDYSRTIPGKQQLLIGAYAKALEIIPRQLCDNAGFDATNILNKLRARHAQGGTWYGVDINNEDIADNFEAFVWEPAMVRINALTAASEAACLIVSVDETIKNPRSTVDAPTAAGRGRGRGRPH [CCT7] | 0.162 | 54.1 °C | 54.2 °C | -0.0678 | -0.684 | -1.22
MKRSVAVWLLVGLSLGVPQFGKGDICDPNPCENGGICLPGLADGSFSCECPDGFTDPNCSSVVEVASDEEEPTSAGPCTPNPCHNGGTCEISEAYRGDTFIGYVCKCPRGFNGIHCQHNINECEVEPCKNGGICTDLVANYSCECPGEFMGRNCQYKCSGPLGIEGGIISNQQITASSTHRALFGLQKWYPYYARLNKKGLINAWTAAENDRWPWIQINLQRKMRVTGVITQGAKRIGSPEYIKSYKIAYSNDGKTWAMYKVKGTNEDMVFRGNIDNNTPYANSFTPPIKAQYVRLYPQVCRRHCTLRMELLGCELSGCSEPLGMKSGHIQDYQITASSIFRTLNMDMFTWEPRKARLDKQGKVNAWTSGHNDQSQWLQVDLLVPTKVTGIITQGAKDFGHVQFVGSYKLAYSNDGEHWTVYQDEKQRKDKVFQGNFDNDTHRKNVIDPPIYARHIRILPWSWYGRITLRSELLGCTEEE [EDIL3] | -0.122 | – | 55.6 °C | -0.0391 | 1.05 | 0.661
